pKd: −log10 of the molar value.
What was measured:
[1] = test system: RpaB (Synechocystis sp. PCC 6803?); assay: EMSA; settings: EMSA: 12 mM HEPES, 4 mM Tris, 12 mM KCl, 1 mM EDTA, 1 mM EGTA, 12% glycerol, 1 ug poly(dIdC); 3% agarose, 0.5x TBE; pH 8.2 or 5 tested; probe 3.85 pmol …
[2] = molecular target: cyAbrB1 (Sll0359), N-terminally 6*His-tagged recombinant protein (Synechocystis sp. PCC 6803); assay: native gel or EMSA; native SDS-PAGE (NSDS-PAGE) of the purified recombinant protein; native glycine polyacrylamide gel (15%, SDS omitted), running buffer 50 mM Tris-HCl, 200 mM glycine, 0.0375% SDS, pH 7.3, 4°C

| Substance | pKd [1] | stoichiometry N [2] |
| --- | --- | --- |
| TTTGCCCAATTTGACAATATATTAAGAAATCCTCATCTAACCTGTTTTTCATTGGATAATTAAAACAAGAGGAAAGATCAGGGGGCAGGAAAATAAATTACCTAATACCTAGTCCTGGTTGATAAAACCAGAGGCAGAAAACCTCCCCGTTTTCTCAAACTTGCCCAAAAGACAACTGTTGAGTTTCCCCCATTGGGACGGAGGTTATG (double strand) [PatpT66-5'UTR] | 5.25 | – |
| cyAbrB1 (Sll0359), N-terminally 6*His-tagged recombinant protein (natural protein) | – | 2 |
